Assay [1] addresses T1, EGFR-D28 (Homo sapiens (Human), UniProt P00533 25-1210).
T1 construct: The deletion Cys240-Cys267 must be applied to the entry
In words: flow cytometry on transfected cells. On the technique in general: Flow cytometry measures light scatter and fluorescence of single cells or particles in a stream.

The target of assay [2] is T2, EGFRvIII (UniProt P00533 25-1210).
T2 construct: whole, on cells; The deletion must be applied to it
In words: flow cytometry on transfected cells.

The target in assay [3] is EGFR fragment D3-D4 (Homo sapiens (Human), UniProt P00533 334-645, limits assumed). As to the kind of experiment: flow cytometry on transfected HEK293T cells.
Assay [4] deals with T3, human EGFR (human, UniProt P00533 25-645).
T3 construct: Recombinant EGFR as used in SPR, ELISA and BLI; The phage selections used the EGFR ectodomain; also called immobilized EGFR; EGFR ectodomain (ECD)
In words: SPR with purified IgG on EGFR; column head 10^5 (s-1M-1).

Assay [5] addresses T3, human EGFR. As to the kind of experiment: SPR with purified IgG on EGFR; column head 10^-4 (s-1).
The target of assay [6] is T3, human EGFR. In words: SPR, IgG; optimized variant IgG ER-2a.
The target in assay [7] is EGFR fragment D1-D2 (Homo sapiens (Human), UniProt P00533 25-334, limits assumed). In words: flow cytometry on transfected HEK293T cells, saturating IgG, signal normalized.

B1: IgG ER-2a (antibody, V domains shown)
VH: EVQLVESGGGLVQPGGSLRLSCAASGFDVYYAAMHWVRQAPGKGLEWVASISPYYGYTSYADSVKGRFTISADTSKNTAYLQMNSLRAEDTAVYYCARYYHFSWHWSSFGGSYYPGMDYWGQGTLVTVSS
VL: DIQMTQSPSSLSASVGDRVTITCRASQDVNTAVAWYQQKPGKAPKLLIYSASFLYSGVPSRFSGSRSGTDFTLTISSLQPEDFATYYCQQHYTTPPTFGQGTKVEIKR
notes: IgG; also called Ab ER-2a
The kon is a measure of how fast the partners come together. As a reminder, the koff is the rate constant with which the complex falls apart. The low end stands for slow dissociation, the high end for fast dissociation. A word on the Kd: it is a measure of binding affinity in units of concentration. Lower therefore signals higher affinity. For the molecule B1, the binding result in assay [1], in assay [2] and in assay [3] was “no binding (tested: saturating IgG concentrations)” throughout. Further, the on-rate (kon) in assay [4] was determined as 220000 M⁻¹ s⁻¹. The koff in assay [5] was determined as 6.1e-05 s⁻¹. This molecule also gave a Kd in assay [6] of 280 pM.

B2: IgG ER-3a (antibody, V domains shown)
VH: EVQLVESGGGLVQPGGSLRLSCAASGFDLYSYSMHWVRQAPGKGLEWVASVSPSSGSTYYADSVKGRFTISADTSKNTAYLQMNSLRAEDTAVYYCARHWHVYPSYYWGGFDYWGQGTLVTVSS
VL: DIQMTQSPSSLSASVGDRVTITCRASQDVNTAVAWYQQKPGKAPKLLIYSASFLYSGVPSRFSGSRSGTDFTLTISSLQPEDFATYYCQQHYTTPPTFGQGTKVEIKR
notes: IgG; also called Ab ER-3a
Take B2: the binding result in assay [7] is “no binding”.

Source of the values: US20240383988A1 (ERASCA, published 2024).
